Common to all, as to assay: SPR; BIAcore 3000; ECM proteins immobilised on CM5 chips, endostatin injected at 0, 10, 50, 200 and 400 nM; 0.02 M Tris-HCl, 0.11 M NaCl, 0.05% P-20; 25 °C; flow 20 μl/min; global fit to the 1:1 Langmuir model; triplicates
Background: SPR reads the build-up and loss of mass on a sensor chip optically.

Assay [1] addresses mouse laminin-1-nidogen-1 complex (mouse) (UniProt P19137).
The target of assay [2] is mouse perlecan (mouse) (UniProt Q05793).
In assay [3] the target is recombinant microfibrillar component fibulin-1 (UniProt Q08879).
Chain of UniProt Q08879 (Q08879 30-705): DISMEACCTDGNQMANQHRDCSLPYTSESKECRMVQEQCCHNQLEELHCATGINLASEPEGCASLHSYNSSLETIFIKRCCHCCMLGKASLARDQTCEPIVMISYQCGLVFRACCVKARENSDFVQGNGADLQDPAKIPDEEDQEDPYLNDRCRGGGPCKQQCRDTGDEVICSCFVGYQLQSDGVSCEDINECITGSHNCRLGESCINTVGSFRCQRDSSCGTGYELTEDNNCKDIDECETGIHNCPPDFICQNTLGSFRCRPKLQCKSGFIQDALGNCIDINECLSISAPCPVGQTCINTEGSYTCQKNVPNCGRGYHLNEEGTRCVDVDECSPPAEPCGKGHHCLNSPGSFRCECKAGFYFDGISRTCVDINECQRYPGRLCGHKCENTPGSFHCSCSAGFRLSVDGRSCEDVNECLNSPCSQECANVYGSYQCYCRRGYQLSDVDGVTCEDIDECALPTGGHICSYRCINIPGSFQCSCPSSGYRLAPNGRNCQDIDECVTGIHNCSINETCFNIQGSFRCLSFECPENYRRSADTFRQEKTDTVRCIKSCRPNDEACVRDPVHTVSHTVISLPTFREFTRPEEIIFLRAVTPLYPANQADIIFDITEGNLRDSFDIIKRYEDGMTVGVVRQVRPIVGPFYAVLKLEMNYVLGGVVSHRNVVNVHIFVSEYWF

Data on two substances can be found in PMC2671584.

Chain of UniProt Q05793 (Q05793 22-3707): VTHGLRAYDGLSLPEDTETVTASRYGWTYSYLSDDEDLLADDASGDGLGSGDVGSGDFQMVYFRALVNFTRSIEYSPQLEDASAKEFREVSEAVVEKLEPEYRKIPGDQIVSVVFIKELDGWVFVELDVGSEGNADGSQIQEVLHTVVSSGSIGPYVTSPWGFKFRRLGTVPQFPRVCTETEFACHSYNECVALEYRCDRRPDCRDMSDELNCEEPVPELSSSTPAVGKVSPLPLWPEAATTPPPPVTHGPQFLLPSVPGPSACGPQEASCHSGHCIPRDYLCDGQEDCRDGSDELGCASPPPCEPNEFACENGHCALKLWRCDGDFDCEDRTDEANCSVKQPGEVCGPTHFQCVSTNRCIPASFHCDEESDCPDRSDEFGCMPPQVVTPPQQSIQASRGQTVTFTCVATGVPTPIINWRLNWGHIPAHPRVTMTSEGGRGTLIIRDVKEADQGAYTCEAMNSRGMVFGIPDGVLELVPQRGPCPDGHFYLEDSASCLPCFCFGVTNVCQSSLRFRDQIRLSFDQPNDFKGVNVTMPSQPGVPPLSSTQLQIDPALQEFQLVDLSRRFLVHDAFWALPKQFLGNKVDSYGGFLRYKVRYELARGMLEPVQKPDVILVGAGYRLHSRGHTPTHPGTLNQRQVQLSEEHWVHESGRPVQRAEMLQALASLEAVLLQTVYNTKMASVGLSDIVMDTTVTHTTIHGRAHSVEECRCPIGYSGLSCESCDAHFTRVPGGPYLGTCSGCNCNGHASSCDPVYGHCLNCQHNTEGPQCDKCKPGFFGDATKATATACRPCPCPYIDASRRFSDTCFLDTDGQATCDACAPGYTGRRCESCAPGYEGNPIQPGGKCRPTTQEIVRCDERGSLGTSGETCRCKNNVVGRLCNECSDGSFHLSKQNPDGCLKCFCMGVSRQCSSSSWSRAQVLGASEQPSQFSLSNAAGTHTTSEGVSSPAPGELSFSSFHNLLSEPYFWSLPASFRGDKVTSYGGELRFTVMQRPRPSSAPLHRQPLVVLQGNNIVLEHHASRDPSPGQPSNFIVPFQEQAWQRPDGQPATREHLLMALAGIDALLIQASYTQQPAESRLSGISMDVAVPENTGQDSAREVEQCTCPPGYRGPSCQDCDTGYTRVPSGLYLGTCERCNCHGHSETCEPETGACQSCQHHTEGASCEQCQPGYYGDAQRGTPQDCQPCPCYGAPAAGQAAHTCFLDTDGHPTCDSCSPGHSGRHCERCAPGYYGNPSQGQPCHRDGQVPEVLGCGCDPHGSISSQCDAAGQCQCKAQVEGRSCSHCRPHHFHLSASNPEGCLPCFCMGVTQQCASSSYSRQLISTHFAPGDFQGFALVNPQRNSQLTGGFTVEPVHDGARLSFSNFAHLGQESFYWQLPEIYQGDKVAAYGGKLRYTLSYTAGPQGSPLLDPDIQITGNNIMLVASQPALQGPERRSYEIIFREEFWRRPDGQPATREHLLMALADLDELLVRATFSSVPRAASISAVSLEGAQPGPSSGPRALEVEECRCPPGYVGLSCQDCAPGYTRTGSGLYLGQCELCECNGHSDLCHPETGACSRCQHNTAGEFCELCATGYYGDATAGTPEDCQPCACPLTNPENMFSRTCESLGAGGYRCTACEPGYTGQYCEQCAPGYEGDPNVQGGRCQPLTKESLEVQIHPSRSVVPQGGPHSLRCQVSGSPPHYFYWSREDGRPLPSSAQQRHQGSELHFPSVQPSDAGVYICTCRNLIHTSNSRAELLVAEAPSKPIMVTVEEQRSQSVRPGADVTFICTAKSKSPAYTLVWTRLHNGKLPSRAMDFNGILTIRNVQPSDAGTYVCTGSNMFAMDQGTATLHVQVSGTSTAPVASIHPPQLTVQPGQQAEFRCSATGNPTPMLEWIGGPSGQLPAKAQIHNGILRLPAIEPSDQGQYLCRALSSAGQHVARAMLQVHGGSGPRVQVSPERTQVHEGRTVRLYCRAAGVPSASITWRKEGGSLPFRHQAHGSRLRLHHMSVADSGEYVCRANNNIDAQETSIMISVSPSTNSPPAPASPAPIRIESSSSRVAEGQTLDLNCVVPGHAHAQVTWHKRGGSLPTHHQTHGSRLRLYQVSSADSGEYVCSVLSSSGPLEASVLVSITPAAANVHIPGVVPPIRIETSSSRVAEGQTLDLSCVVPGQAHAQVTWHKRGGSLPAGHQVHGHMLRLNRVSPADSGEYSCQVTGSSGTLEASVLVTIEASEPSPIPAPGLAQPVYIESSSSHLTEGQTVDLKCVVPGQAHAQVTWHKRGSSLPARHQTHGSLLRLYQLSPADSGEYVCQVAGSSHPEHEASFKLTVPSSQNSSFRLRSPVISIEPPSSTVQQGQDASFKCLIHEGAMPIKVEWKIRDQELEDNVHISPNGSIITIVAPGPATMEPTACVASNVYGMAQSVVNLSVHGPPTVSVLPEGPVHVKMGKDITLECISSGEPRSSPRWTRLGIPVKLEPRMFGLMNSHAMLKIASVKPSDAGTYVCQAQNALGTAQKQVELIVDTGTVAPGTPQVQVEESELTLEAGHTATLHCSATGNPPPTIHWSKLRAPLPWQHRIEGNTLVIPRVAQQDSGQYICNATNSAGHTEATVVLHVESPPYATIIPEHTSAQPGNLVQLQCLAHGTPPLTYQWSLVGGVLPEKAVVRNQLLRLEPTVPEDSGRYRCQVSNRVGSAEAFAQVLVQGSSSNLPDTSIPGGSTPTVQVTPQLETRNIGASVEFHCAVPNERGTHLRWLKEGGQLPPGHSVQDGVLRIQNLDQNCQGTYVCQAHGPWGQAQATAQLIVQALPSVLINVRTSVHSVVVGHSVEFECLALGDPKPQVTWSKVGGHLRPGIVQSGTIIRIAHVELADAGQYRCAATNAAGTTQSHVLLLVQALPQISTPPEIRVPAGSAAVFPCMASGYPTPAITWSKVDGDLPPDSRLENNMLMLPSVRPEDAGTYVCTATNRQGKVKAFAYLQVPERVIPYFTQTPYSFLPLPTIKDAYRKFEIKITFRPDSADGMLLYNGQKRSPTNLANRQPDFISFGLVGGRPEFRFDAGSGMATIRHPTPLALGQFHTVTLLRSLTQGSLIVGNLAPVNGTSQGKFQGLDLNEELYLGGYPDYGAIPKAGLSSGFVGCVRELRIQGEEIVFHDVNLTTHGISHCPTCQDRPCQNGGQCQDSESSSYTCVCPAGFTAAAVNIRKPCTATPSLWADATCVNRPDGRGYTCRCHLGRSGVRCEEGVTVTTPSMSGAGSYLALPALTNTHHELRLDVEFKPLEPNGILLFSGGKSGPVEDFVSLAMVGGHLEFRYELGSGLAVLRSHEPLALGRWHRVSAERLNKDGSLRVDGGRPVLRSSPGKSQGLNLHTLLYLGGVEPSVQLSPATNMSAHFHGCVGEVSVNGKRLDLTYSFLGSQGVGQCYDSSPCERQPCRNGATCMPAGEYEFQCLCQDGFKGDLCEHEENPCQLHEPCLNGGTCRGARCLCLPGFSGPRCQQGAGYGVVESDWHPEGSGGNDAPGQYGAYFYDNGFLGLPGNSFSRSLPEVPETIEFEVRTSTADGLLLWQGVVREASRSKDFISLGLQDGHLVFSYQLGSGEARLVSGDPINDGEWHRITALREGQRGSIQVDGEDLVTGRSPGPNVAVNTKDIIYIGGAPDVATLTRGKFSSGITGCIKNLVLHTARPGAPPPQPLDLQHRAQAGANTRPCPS

As a reminder, the Kd is the free concentration of one partner at which half of the binding sites on the other are occupied at equilibrium, for simple one-to-one binding. Consider “p.A1381T endostatin (mutated endostatin domain, c.3601G>A) (domain or fragment)”, for which the Kd in assay [1] worked out at 6.17 nM; in assay [2], 5.19 nM; in assay [3] it was 6.95 nM.

Consider “wild type human endostatin (endostatin domain of type XVIII collagen) (domain or fragment)”, for which the dissociation constant (Kd) stood at 3.48 nM in assay [1], 5.53 nM in assay [2] and 3.1 nM in assay [3].
